Assay results from patent US12454572B2, “Methods of treating anemia in myelodysplastic syndromes” (Dana-Farber Cancer Institute, Inc., priority 2021, dated 2025).
Entries after “also recorded” stand apart in the source; their conditions may differ. Like-named read-outs stand apart in the source and are kept apart here.

How the values were obtained:
human CD34+ stem cells = settings: cited from earlier work
MDS patients = settings: cited from earlier work
wild-type TH22 cells = test: secreted IL-22 from in vitro polarized wild-type TH22 cells; assay type: cell-based, mouse; settings: for secreted IL-22: pifithrin-α, p-nitro 1 μM, Nutlin-3 100 nM
Experimental: Single-cell suspensions of mouse spleens were prepared by pressing tissue through a 70-μm cell strainer followed by red blood cell lysis using PharmLyse. Total splenic CD4^+ T cells were isolated using CD4 T cell isolation kit (Miltenyi Biotec). Enriched CD4^+ T cells were then incubated with fluorochrome-conjugated antibodies to CD4, CD8, CD25, CD62L, and CD44 to purify naïve CD4^+ T cells using fluorescence activated cell sorting (FACS). In the presence of 1 μg/mL plate-bound anti-CD3ε and soluble 1 μg/mL anti-CD28, T cell polarizations were carried out in IMDM supplemented with 10% FBS, 2 mM L-glutamine, […] penicillin-streptomycin, HEPES (pH 7.2-7.6), non-essential amino acids, 100 μM β-mercaptoethanol (BME), and sodium pyruvate as follows—TH1 (20 ng/mL IL-12, 10 μg/mL anti-IL-4), TH2 (20 ng/mL IL-4, 10 μg/mL anti-IFN-γ), TH17 (30 ng/mL IL-6, 20 ng/mL IL-23, 20 ng/mL IL-1β, 10 μg/mL anti-IL-4, 10 μg/mL anti-IFN-γ), Treg cells (1 ng/mL TGF-β, 10 μg/mL anti-IL-4, 10 μg/mL anti-IFN-γ), and TH22 (30 ng/mL IL-6, 20 ng/mL IL-23, 20 ng/mL IL-1β, 10 μg/mL anti-IL-4, 10 μg/mL anti-IFN-γ, 400 nM FICZ). Pifithrin-α, p-Nitro and Nutlin-3a were purchased from Santa Cruz Biotechnology and Tocris Biosciences, respectively.
IL-22 in human samples was quantified using either Human IL-22 Quantikine ELISA Kit (D2200, R&D Systems) or SMCTM Human IL-22 High Sensitivity Immunoassay Kit (EMD Millipore, 03-0162-00) according to manufacturers' instructions. The SMC assay was read on a SMC Pro (EMD Millipore) instrument. The lower limit of quantification (LLOQ) of this immunoassay is 0.1 pg/mL. IL-22 in mouse samples was quantified using ELISA MAX™ Deluxe Set Mouse IL-22 (BioLegend, 436304). The LLOQ of this immunoassay is 3.9 pg/mL. S100A8 in human samples was quantified using Human S100A8 DuoSet ELISA (DY4570, R&D Systems).

Lin- BM cells = test: in vitro erythropoiesis assay (erythroid differentiation of Lin- BM cells); assay type: cell-based, mouse; settings: for p53 expression: culture treated with rIL-22 vs PBS
Experimental: Whole BM cells were labeled with biotin-conjugated lineage antibodies (cocktail of anti-CD3ε, anti-CD11b, anti-CD45R/B220, anti-Gr1, anti-CD5, and anti-TER-119) (BD Pharmingen) and purified using anti-biotin beads and negative selection on the AutoMACS Pro (Miltenyi). Purified cells were then seeded in fibronectin-coated (2 μg/cm^2) tissue-culture treated polystyrene wells (CORNING® BIOCOAT™ Cellware) at a cell density of 10^5/mL. Erythroid differentiation was carried out according to modified published protocols. The erythropoietic medium was IMDM supplemented with erythropoietin at 10 U/mL, 10 ng/mL stem cell factor SCF, PeproTech), 10 μM Dexamethasone (Sigma-Aldrich), 15% FBS, 1% detoxified BSA (StemCell Technologies), 200 μg/mL holotransferrin (Sigma-Aldrich), […] human insulin (Sigma-Aldrich), 2 mM L-glutamine, 0.1 mM β-mercaptoethanol, and penicillin-streptomycin. After 48 h, the medium was replaced by IMDM medium containing 20% FBS, 2 mM L-glutamine, 0.1 mM β-mercaptoethanol, and penicillin-streptomycin. 50% of the culture media was replaced after 48 h and cell density was maintained at 0.5×10^6/mL. Total culture period for the assay was 6 days. Recombinant mouse IL-22 (PeproTech/Cell Signaling) was used where indicated.

IL-22 [1] = target: T1, IL-22 (Mus musculus, UniProt Q9JJY9); test: IL-22 neutralization with anti-IL-22 antibody in mice undergoing PhZ-induced stress erythropoiesis; assay type: in vivo; set-up: endogenous in cells; host or cells: living mice (wt C57BL/6J; Riok2f/+Vav1cre and Riok2+/+Vav1cre); settings: for frequency of apoptotic erythroid progenitors/precursors: viable BM cells
T1 sequence (Q9JJY9 34-179): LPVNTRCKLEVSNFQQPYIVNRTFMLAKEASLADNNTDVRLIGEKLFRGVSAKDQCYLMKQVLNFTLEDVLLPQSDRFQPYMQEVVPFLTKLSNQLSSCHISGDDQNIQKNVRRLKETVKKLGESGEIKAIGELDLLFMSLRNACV
Experimental: (§1) Phenylhydrazine (PhZ) was purchased from Sigma and injected intraperitoneally on 2 consecutive days (days 0 and 1) at a dose of 25 mg/kg. Peripheral blood was collected 3-4 days before the start of treatment and at day 4, 7 and 11. PhZ treatment experiments were carried out in 8-16 week-old mice.
(§2) Monoclonal anti-IL-22 (Clone IL22JOP) blocking antibody and isotype control IgG2a (Clone eBR2a) were purchased from Thermo Fisher Scientific. Mice were administered anti-IL-22 (50 μg/mouse) or isotype intraperitoneally every 48 h until the conclusion of the experiment. For recombinant IL-22 treatment, mice were injected with recombinant IL-22 (500 ng/mouse; PeproTech) intraperitoneally every 24 h until the conclusion of the experiment.
(§3) Mice were bled via the submandibular facial vein to collect blood in EDTA-coated tubes (BD MICROTAINER™ Capillary Blood Collector, BD 365974). Complete blood counts were obtained using the HemaVet CBC Analyzer (Drew Scientific) or Advia 120 (Siemens Inc.,) instruments.
as §1, with “at the” for “at a”, “25 mg/kg (sublethal model) or 35 mg/kg (lethal model).” for “25 mg/kg.”, “4, 7,” for “4, 7”, “in 8-12 week old” for “in 8-16 week-old”
(§4) Monoclonal anti-IL-22 (Clone IL22JOP) blocking antibody and isotype control IgG2aκ (Clone eBR2a) were purchased from Thermo Fisher Scientific. Mice were administered anti-IL-22 (50 μg/mouse) or isotype intraperitoneally every 48 h until the conclusion of the experiment. For recombinant IL-22 treatment, mice were injected with recombinant IL-22 (500 ng/mouse; PeproTech) intraperitoneally every 24 h until the conclusion of the experiment. Mice were administered these reagents at least five times before inducing PhZ-mediated anemia.

IL-22 [2] = target: T1, IL-22; test: anti-IL-22 antibody in naive, non-anemic wt C57BL/6J mice; assay type: in vivo; set-up: endogenous in cells; host or cells: living mice (wt C57BL/6J; Riok2f/+Vav1cre and Riok2+/+Vav1cre); settings: healthy, anti-IL-22 vs isotype
Experimental: as §2, §3, §4

IL-22 [3] = target: T1, IL-22; settings: cited from earlier work
Il22ra1f/fEporcre mice = test: recombinant IL-22 administration to Il22ra1f/fEporcre mice subsequently treated with PhZ; assay type: in vivo, mouse; settings: mice lacking the IL-22 receptor only on erythroid cells
Experimental: as §1, with “at the” for “at a”, “25 mg/kg (sublethal model) or 35 mg/kg (lethal model).” for “25 mg/kg.”, “4, 7,” for “4, 7”, “in 8-12 week old” for “in 8-16 week-old”
as §4

wild-type C57BL/6J mice = test: recombinant IL-22 administration to wt C57BL/6J mice subsequently treated with PhZ; assay type: in vivo, mouse; settings: for apoptosis of erythroid progenitors/precursors: in vivo
Experimental: as §1, §2, §3
as §1, with “at the” for “at a”, “25 mg/kg (sublethal model) or 35 mg/kg (lethal model).” for “25 mg/kg.”, “4, 7,” for “4, 7”, “in 8-12 week old” for “in 8-16 week-old”
as §4

[4] = Riok2 sufficient (Riok2+/+Vav1cre) mice, PhZ-induced anemia, vs isotype
[5] = wt C57BL/6J mice undergoing PhZ-induced anemia, vs isotype

For `CC(C)n1cnc2c(NCCc3ccc(O)cc3)nc(-c3csc4ccccc34)nc21` [Stemregenin 1], which “increase in erythroid colonies” value (human CD34+ stem cells; SR1-pretreated CD34+ cells vs untreated cells) is on record?
The value was 129 fold.

What about the “pluripotency of human CD34+ stem cells” value (human CD34+ stem cells) of the same molecule?
The value was “maintain”.

What about the “ex vivo expansion of human HSCs” value (human CD34+ stem cells; highest fold expansion seen in the erythroid lineage) of the same molecule?
Its value is “promote”.

With `Nc1cccc2c1CN(C1CCC(=O)NC1=O)C2=O` (centres unmarked) [lenalidomide] as the molecule, how does the extension of survival (MDS patients; HR-MDS group) read?
The extension of survival was 4-6 months.

And the extension of survival (MDS patients; LR-MDS patients)?
The extension of survival was 14-17 months.

Which cell viability (wild-type TH22 cells) does the source give for `COc1ccc(C2=N[C@@H](c3ccc(Cl)cc3)[C@@H](c3ccc(Cl)cc3)N2C(=O)N2CCNC(=O)C2)c(OC(C)C)c1` [nutlin-3] here?
The cell viability was “did not decrease”.

And the “secreted IL-22” value (wild-type TH22 cells)?
Its value is “increased”.

What does the source list for `N=c1sc2c(n1CC(=O)c1ccc([N+](=O)[O-])cc1)CCCC2` [pifithrin-α, p-nitro]?
apoptosis induced by Riok2 haploinsufficiency (Lin- BM cells; IL-22-free assay, pifithrin-α, p-nitro 1 μM, Lin- BM cells from Riok2f/+Vav1cre mice): inhibited; secreted IL-22 (wild-type TH22 cells): decreased; cell viability (wild-type TH22 cells; viable cells by flow cytometry): did not decrease

Which “PB RBCs” value (IL-22 [1]; Riok2f/+Vav1cre mice, PhZ-induced anemia, anti-IL-22 50 μg/mouse i.p. every 48 h vs isotype) does the source give for “anti-IL-22 (Clone IL22JOP): Monoclonal anti-IL-22 blocking antibody purchased from Thermo Fisher Scientific; used in Examples 2-16” here?
Its value is “anti-anemic effect; also recorded: increase”.

What about the HCT (IL-22 [1]; Riok2f/+Vav1cre mice, PhZ-induced anemia, vs isotype) of the same molecule?
The HCT was “anti-anemic effect; also recorded: increase”.

What about the “frequency of apoptotic erythroid progenitors/precursors” value (IL-22 [1]; Riok2f/+Vav1cre mice, PhZ) of the same molecule?
Its value is “reduced”.

What about the anemia (IL-22 [1]; Riok2 haploinsufficient (Riok2f/+Vav1cre) mice, vs isotype) of the same molecule?
The anemia was “partially reversed; also recorded: alleviated”.

And the phenylhydrazine-induced anemia (IL-22 [1]; Riok2 sufficient (Riok2+/+Vav1cre) mice)?
The phenylhydrazine-induced anemia was “reversed”.

And the HCT (IL-22 [1]; [4])?
Its HCT is “anti-anemic effect; also recorded: increase”.

And the “PB RBCs” value (IL-22 [1]; [4])?
The value was “anti-anemic effect; also recorded: increase”.

What about the “frequency of apoptotic erythroid progenitors/precursors” value (IL-22 [1]; Riok2 sufficient mice, PhZ) of the same molecule?
The value was “reduced”.

And the anemia (IL-22 [1]; wild-type mice undergoing PhZ-induced stress erythropoiesis)?
The anemia was “alleviated”.

And the HCT (IL-22 [1]; [5])?
Its HCT is “significantly increased”.

What about the Hb (IL-22 [1]; [5]) of the same molecule?
Its Hb is “significantly increased”.

What about the “PB RBCs” value (IL-22 [1]; [5]) of the same molecule?
The value was “increases; also recorded: significantly increased; also recorded: faster”.

What about the “frequency of RIII and RIV erythroid precursors in the BM” value (IL-22 [1]; wt C57BL/6J mice, PhZ, vs isotype) of the same molecule?
Its value is “increased”.

What about the HCT (IL-22 [2]) of the same molecule?
The HCT was “did not differ”.

And the Hb (IL-22 [2])?
Its Hb is “did not differ”.

What about the “PB RBCs” value (IL-22 [2]) of the same molecule?
Its value is “did not differ”.

And the “neutralization of IL-22” value (IL-22 [3])?
The value was “effectively neutralize”.

For etanercept, which “efficacy in MDS patients” value (MDS patients; human, in vivo) is on record?
The value was “ineffective”.

B1: rIL-22: recombinant IL-22 (PeproTech / Cell Signaling) (protein, UniProt Q9JJY9 34-179, looked up)
Interleukin-22: T1 sequence (Q9JJY9 34-179)
For B1, which p53 expression (Lin- BM cells) is on record?
The p53 expression was “upregulation”.

What about the p53 expression (Lin- BM cells; listed as recombinant IL-22) of the same molecule?
The p53 expression was “induction”.

What about the terminal erythropoiesis (Lin- BM cells; recombinant IL-22, dose response) of the same molecule?
The terminal erythropoiesis was “dose-dependently decreased”.

What about the phenylhydrazine-induced anemia (Il22ra1f/fEporcre mice) of the same molecule?
The phenylhydrazine-induced anemia was “failed to exacerbate”.

And the “BM erythroid progenitor/precursor cells (frequency and number)” value (wild-type C57BL/6J mice; 7 days after PhZ, vs PBS)?
Its value is “decreased”.

What about the “PB RBCs” value (wild-type C57BL/6J mice; rIL-22 500 ng/mouse i.p. every 24 h, then PhZ, vs PBS) of the same molecule?
The value was “decreased”.

And the BM reticulocytes (wild-type C57BL/6J mice; rIL-22 i.p., PhZ)?
The BM reticulocytes was “increase”.

What about the PB reticulocytes (wild-type C57BL/6J mice; rIL-22 i.p., PhZ) of the same molecule?
The PB reticulocytes was “increase”.

What about the “apoptosis of erythroid progenitors/precursors” value (wild-type C57BL/6J mice; rIL-22 i.p., PhZ) of the same molecule?
The value was “increased; also recorded: induced”.

What about the “apoptosis of erythroid progenitors/precursors” value (wild-type C57BL/6J mice; rIL-22 i.p., PhZ, listed as recombinant IL-22) of the same molecule?
The value was “increase”.

What about the HCT (wild-type C57BL/6J mice; rIL-22 i.p., then PhZ, vs PBS) of the same molecule?
Its HCT is “decreased”.

What about the Hb (wild-type C57BL/6J mice; rIL-22 i.p., then PhZ, vs PBS) of the same molecule?
Its Hb is “decreased”.

What about the “PhZ-induced (stress-induced) anemia” value (wild-type C57BL/6J mice; wt mice) of the same molecule?
The value was “exacerbates”.
